Experimental findings from WO2010047829A1 are described below.

The target in the test is E1E2 (isolate H77), produced by transfected 293T cells (hepatitis C virus isolate H77 (genotype 1a)) (UniProt P27958). The test is described as follows: cell-based or functional assay.

The substance MAb AR3A (antibody) yielded an IC50 titer, neutralization of HCVpp-H77 of 0.4 µg/mL.

MAb AR3B (antibody) came in with an IC50 titer, neutralization of HCVpp-H77 of 1 µg/mL.
